Earlier results on one substance are cited in PMC9783754.

The target in this series is S100A12 (Homo sapiens) (UniProt P80511).
S100A12 (Homo sapiens), sequence (P80511 2-92): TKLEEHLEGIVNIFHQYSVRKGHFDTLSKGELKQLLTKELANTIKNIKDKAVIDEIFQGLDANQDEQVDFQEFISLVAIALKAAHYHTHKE

S100A12, sequence (P80511 2-92): as above

For orientation: Kd means a measure of binding affinity in units of concentration. On to S100A12 (from UniProt P80511), for which the Kd was 160 µM.
